Laboratory results from publication PMC6305486.
Blank lines part the entries; values can stand above or below the substance they belong to.

Experiments:
FtsQ_(50–276) = FtsQ_(50–276) (UniProt P06136); test: BLI; details: GST-e5-FtsB (mutant) in complex with k5-FtsL immobilized; FtsQ analyte 0-80 µM; parent: 0.24 ± 0.01
[1] = molecular target: e5-FtsB_(25–103)/k5-FtsL_(64–121) complex (E. coli) (UniProt P0A6S5); test: SEC; analytical gel filtration, Superdex 200 10/300 GL, buffer B (20 mM Tris-HCl pH 8.0, 200 mM NaCl), 0.5 mL/min; high concentrations (101–370 μM); apparent Stokes radius compared with radii calculated from models
[2] = molecular target: GST-fused e5-FtsB_(25–103) E68A/k5-FtsL_(64–121) complex (E. coli) (UniProt P0A6S5); test: BLI; BLItz; GST-fused FtsB proteins or GST-e5-FtsB/k5-FtsL complexes immobilised on AR2G biosensor by amine coupling; FtsQ_(50–276) (WT or Y248A) in solution, 0.1–80 μM; running buffer 20 mM Tris-HCl pH 8.0, 200 mM NaCl; equilibrium analysis of points at 100 s
[3] = molecular target: GST-fused e5-FtsB_(25–103)/k5-FtsL_(64–121) complex (WT) (E. coli) (UniProt P0A6S5); test: as above
[4] = molecular target: e5-FtsB_(25–103)/k5-FtsL_(64–121) complex (E. coli) (UniProt P0A6S5); test: SEC; analytical gel filtration, Superdex 200 10/300 GL, buffer B (20 mM Tris-HCl pH 8.0, 200 mM NaCl), 0.5 mL/min; low concentrations (6.8–22.2 μM); apparent Stokes radius compared with radii calculated from models

Chain of FtsQ_(50–276) (UniProt P06136) (P06136 whole entry, looked up, tested part not stated): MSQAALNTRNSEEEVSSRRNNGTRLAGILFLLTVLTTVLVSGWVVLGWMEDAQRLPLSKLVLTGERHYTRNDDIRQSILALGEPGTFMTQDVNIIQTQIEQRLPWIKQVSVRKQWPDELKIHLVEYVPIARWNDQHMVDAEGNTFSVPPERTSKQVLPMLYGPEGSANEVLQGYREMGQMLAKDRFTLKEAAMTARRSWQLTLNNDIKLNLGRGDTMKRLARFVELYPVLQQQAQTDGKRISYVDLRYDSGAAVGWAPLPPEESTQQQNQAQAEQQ
Chain of FtsQ_(50–276) (from UniProt P06136 50-276) (domain or fragment) (P06136 50-276): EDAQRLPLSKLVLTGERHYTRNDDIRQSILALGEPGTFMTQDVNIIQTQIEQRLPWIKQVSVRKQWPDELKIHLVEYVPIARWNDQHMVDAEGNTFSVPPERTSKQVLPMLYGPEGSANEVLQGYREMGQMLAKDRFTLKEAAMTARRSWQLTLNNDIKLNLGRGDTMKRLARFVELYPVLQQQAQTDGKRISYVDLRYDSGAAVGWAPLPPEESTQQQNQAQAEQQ

Kd (FtsQ_(50–276)): > 100 µM
Substance: GST-fused e5-FtsB_(25–103)/k5-FtsL_(64–121) complex (WT) (from UniProt P0A6S5;P0AEN4) E69R

Kd (FtsQ_(50–276)): > 100 µM
Substance: GST-fused e5-FtsB_(25–103)/k5-FtsL_(64–121) complex (WT) (from UniProt P0A6S5;P0AEN4) R72E

Kd (FtsQ_(50–276)): > 100 µM
Substance: GST-fused e5-FtsB_(25–103)/k5-FtsL_(64–121) complex (WT) (from UniProt P0A6S5;P0AEN4) E82R

stoichiometry N (FtsQ:FtsB:FtsL ratio (1:1:1)) [1]: 1
stoichiometry N (FtsQ:FtsB:FtsL ratio (2:2:2)) [1]: 1
fold reduction of affinity against WT [2]: 10 fold
Kd [3]: 0.24 µM
stoichiometry N (FtsQ:FtsB:FtsL ratio (1:1:1)) [4]: 1
stoichiometry N (FtsQ:FtsB:FtsL ratio (2:2:2)) [4]: 1
Substance: FtsQ_(50–276) (from UniProt P06136 50-276) (domain or fragment)
